Laboratory results from paper PMC4218836, “Generation of a Single Chain Antibody Variable Fragment (scFv) to Sense Selectively RhoB Activation” (PLoS ONE, 2014).

Legend:
[1] = target: T1, GST-RhoBL63 (Homo sapiens (species assumed), UniProt P62745, L63)
[2] = target: GST-RhoAL63 (Homo sapiens (species assumed), UniProt P61586, L63)
[3] = target: GST-RhoCL63 (Homo sapiens (species assumed), UniProt P08134, L63)
[4] = target: T2, recombinant wild type GST-RhoB (Homo sapiens (species assumed), UniProt P62745); experiment: ELISA; purified scFvs on wild type GST-Rho loaded with GTPγS (from crude bacterial extracts) and captured on glutathione coated plates; GDP-loaded GST-Rho beside it; settings: one partner purified
T2 construct: RhoB wild type, loaded with GDP or GTPγS; also called RhoBwt; GST-RhoBwt; source: E. coli BL21, crude bacterial extract, nucleotide-loaded

[5] = target: T3, recombinant wild type GST-RhoA (Homo sapiens (species assumed), UniProt P61586); experiment: as above; settings: one partner purified
T3 construct: RhoA wild type, loaded with GDP or GTPγS; also called RhoAwt; RhoA-GTPγS; source: E. coli BL21, crude bacterial extract, nucleotide-loaded

[6] = target: T4, 6xHis-RhoAL63 (Homo sapiens (species assumed), UniProt P61586, L63); experiment: ELISA; competitive ELISA (method of Friguet): purified scFvs (10^-9-10^-8 M) incubated until equilibrium (30 min, 23-25°C) with a range of concentrations of soluble 6xHis-RhoL63, free scFv then quantified on GST-Rho-coated plates with anti-c-myc-HRP; nonlinear regression; settings: both partners purified
T4 construct: RhoA, mutant L63, cDNA in the pHIS parallel2 vector; also called 6his-RhoL63; source: E. coli BL21, purified (Ni-NTA, native condition); not shown: 6xHis, N-terminal, kept

[7] = target: T5, endogenous RhoA (human (endogenous in HeLa), UniProt P61586); experiment: pull-down; CBD-pulldown: scFv-bound chitin beads (0,5-1 µg) with HeLa cell extracts loaded with GTPγS (100 µM), 45 min at 4°C; Western blot with anti-RhoA, anti-RhoB, anti-RhoC; GDP-loaded extracts beside it; settings: one partner purified
T5 construct: RhoA, endogenous in HeLa S3 cells; source: endogenous, HeLa cell extract

[8] = target: T6, endogenous RhoC (Homo sapiens (HeLa S3), UniProt P08134); experiment: as above; settings: one partner purified
T6 construct: RhoC, endogenous in HeLa S3 cells; source: endogenous, HeLa cell extract

[9] = target: T7, 6xHis-RhoBL63 (Homo sapiens (species assumed), UniProt P62745, L63); experiment: ELISA; competitive ELISA (method of Friguet): purified scFvs (10^-9-10^-8 M) incubated until equilibrium (30 min, 23-25°C) with a range of concentrations of soluble 6xHis-RhoL63, free scFv then quantified on GST-Rho-coated plates with anti-c-myc-HRP; nonlinear regression; settings: both partners purified
T7 construct: RhoB, mutant L63, cDNA in the pHIS parallel2 vector; also called 6his-RhoL63; source: E. coli BL21, purified (Ni-NTA, native condition); not shown: 6xHis, N-terminal, kept

[10] = target: T8, endogenous RhoB (human (endogenous in HeLa), UniProt P62745); experiment: pull-down; CBD-pulldown: scFv-bound chitin beads (0,5-1 µg) with HeLa cell extracts loaded with GTPγS (100 µM), 45 min at 4°C; Western blot with anti-RhoA, anti-RhoB, anti-RhoC; GDP-loaded extracts beside it; settings: one partner purified
T8 construct: RhoB, endogenous in HeLa S3 cells; source: endogenous, HeLa cell extract

[11] = target: T1, GST-RhoBL63; experiment: SPR; BIAcore T200; GST fusion Rho captured (about 1000 RU) by anti-GST antibody on CM5 chip, scFvs injected 6.25-100 nM, single-cycle kinetics, HBS-P pH 7.4, 25°C, GST alone as reference channel, 1:1 Langmuir model; settings: both partners purified

T4 sequence (P61586 other isoform, or with tags, fused parts or gaps L63 | L63): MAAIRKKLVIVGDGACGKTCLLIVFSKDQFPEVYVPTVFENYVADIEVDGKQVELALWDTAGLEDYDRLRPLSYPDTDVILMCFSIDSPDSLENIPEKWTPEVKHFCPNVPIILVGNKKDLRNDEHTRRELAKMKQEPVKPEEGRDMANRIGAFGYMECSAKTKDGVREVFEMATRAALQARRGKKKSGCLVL
T2 sequence (P62745 whole entry): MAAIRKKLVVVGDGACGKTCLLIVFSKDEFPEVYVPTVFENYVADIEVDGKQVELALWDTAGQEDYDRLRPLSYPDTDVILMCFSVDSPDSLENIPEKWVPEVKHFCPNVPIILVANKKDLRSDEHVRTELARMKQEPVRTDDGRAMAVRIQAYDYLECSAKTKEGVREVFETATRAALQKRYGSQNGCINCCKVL
T6 sequence (P08134 whole entry): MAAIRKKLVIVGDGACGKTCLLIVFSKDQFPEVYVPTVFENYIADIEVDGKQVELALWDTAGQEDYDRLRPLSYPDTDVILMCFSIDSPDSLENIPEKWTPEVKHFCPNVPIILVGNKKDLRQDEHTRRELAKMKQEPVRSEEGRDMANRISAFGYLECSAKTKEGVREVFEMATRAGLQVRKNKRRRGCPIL
T5 sequence (P61586 whole entry): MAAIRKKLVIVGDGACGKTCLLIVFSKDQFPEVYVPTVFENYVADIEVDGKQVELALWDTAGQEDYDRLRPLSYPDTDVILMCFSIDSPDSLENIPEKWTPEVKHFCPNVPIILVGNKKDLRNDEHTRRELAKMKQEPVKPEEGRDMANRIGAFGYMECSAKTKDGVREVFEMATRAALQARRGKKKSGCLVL
T3 sequence (P61586 whole entry): as above
T7 sequence (P62745 other isoform, or with tags, fused parts or gaps L63 | L63): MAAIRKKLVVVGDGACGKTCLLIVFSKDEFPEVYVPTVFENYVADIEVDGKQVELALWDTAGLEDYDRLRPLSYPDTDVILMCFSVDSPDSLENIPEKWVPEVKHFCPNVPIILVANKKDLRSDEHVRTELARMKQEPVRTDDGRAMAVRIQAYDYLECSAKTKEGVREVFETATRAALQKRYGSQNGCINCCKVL
T1 sequence (P62745 other isoform, or with tags, fused parts or gaps L63 | L63): as above
T8 sequence (P62745 whole entry): as the sequence (P62745 whole entry) above
Chain of GST-RhoCL63 (P08134 other isoform, or with tags, fused parts or gaps L63 | L63): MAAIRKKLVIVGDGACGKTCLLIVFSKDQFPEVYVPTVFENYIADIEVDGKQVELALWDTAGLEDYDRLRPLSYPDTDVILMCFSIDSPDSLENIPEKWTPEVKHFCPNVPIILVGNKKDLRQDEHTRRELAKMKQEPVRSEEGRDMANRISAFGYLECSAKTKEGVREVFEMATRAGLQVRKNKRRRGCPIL
Chain of GST-RhoAL63 (P61586 other isoform, or with tags, fused parts or gaps L63 | L63): as the sequence (P61586 other isoform, or with tags, fused parts or gaps L63 | L63) above

B1: C1 (scFvC1) (antibody, V domains shown)
VH: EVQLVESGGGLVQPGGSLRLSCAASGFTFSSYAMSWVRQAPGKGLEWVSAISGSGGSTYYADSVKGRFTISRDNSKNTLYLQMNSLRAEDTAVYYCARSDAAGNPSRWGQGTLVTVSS
VL: SSELTQDPAVSVALGQTVRITCQGDSLRSYYASWYQQKPGQAPVLVIYGKNNRPSGIPDRFSGSSSGNTASLTITGAQAEDEADYYCNSRDSSGNHAYVFGGGTKLTVL
B1: binds [1]; binds [2]; binds [3].

B2: scFvD10 (soluble, in fusion with the N-terminal domain of the phage P3 protein) (scFv, V domains shown)
VH: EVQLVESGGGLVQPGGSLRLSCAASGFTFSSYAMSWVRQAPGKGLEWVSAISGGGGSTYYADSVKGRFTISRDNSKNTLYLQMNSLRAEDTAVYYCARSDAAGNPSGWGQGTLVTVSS
VL: SSELTQDPAVSVALGQTVRITCQGDSLRSYYASWYQQKPGQAPVLVIYGKNNRPSGIPDRFSGSSSGNTASLTITGAQAEDEADYYCNSRDSSGNHAYVFGGGTKLTVL
notes: evolved variant of scFvC1 (VH, linker, VL); also called clone D10; source: E. coli XL1 blue, periplasmic fraction, purified (Ni-NTA); not shown: NP3 (N-terminal domain of the phage P3 protein), C-terminal, kept
For B2, the binding result [4] was “no binding”, the binding result [5] was “binds” and the Kd [6] was 3.38 nM.

B3: scFvD10-NP3-CBD (scFvD10 in fusion with the Chitin Binding Domain, on chitin beads) (scFv, V domains shown)
VH: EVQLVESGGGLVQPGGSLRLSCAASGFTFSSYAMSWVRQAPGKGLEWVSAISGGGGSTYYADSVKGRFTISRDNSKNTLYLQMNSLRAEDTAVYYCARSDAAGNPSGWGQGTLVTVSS
VL: SSELTQDPAVSVALGQTVRITCQGDSLRSYYASWYQQKPGQAPVLVIYGKNNRPSGIPDRFSGSSSGNTASLTITGAQAEDEADYYCNSRDSSGNHAYVFGGGTKLTVL
notes: as the scFv of m2; Order scFv, NP3, CBD from the plasmid pHEN-scFv-NCBD; not shown: NP3 (N-terminal domain of the phage P3 protein), C-terminal, kept
B3: binds [7]; binds [8].

B4: scFvF7 (soluble, in fusion with the N-terminal domain of the phage P3 protein) (scFv, V domains shown)
VH: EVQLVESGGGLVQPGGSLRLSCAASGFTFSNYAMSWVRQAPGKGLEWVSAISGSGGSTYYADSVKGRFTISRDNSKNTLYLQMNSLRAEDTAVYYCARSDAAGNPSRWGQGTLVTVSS
VL: SSELTQDPAVSVALGQTVRITCQGDSLRSYYASWYQQKPGQAPVLVIYGKNNRPSGIPDRFSGSSSGNTASLTITGAQAEDEADYYCNTRDSSGNHAYVFGGGTKLTVL
notes: evolved variant of scFvC1 (VH, linker, VL); also called clone F7; source: E. coli XL1 blue, periplasmic fraction, purified (Ni-NTA); not shown: NP3 (N-terminal domain of the phage P3 protein), C-terminal, kept
For B4, the binding result [4] was “binds”, the binding result [5] was “binds” and the Kd [6] was 2.33 nM. The Kd [9] was 4.94 nM.

B5: scFvF7-NP3-CBD (scFvF7 in fusion with the Chitin Binding Domain, on chitin beads) (scFv, V domains shown)
VH: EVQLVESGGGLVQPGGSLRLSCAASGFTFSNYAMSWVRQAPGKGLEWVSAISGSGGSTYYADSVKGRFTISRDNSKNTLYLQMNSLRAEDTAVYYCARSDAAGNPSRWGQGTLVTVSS
VL: SSELTQDPAVSVALGQTVRITCQGDSLRSYYASWYQQKPGQAPVLVIYGKNNRPSGIPDRFSGSSSGNTASLTITGAQAEDEADYYCNTRDSSGNHAYVFGGGTKLTVL
notes: as the scFv of m1; Order scFv, NP3, CBD from the plasmid pHEN-scFv-NCBD; not shown: NP3 (N-terminal domain of the phage P3 protein), C-terminal, kept
B5: binds [7]; binds [8]; binds [10].

B6: scFvE3 (soluble, in fusion with the N-terminal domain of the phage P3 protein) (scFv, V domains shown)
VH: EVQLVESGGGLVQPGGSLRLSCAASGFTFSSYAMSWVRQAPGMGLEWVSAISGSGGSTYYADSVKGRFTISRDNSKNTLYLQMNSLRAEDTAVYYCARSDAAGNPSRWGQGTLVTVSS
VL: SSELTQDPAVSVALGQTVRITCQGDSLRSYYTSWYQQKPGQAPVRVIYGKNNRPSGVPDRFSGSSSGNTASLTITGAQAEDEADYYCNSRDSSGNHAYVFGGGTKLTVL
notes: evolved variant of scFvC1 with 4 substitutions located within the scaffold, without D100N; Isolated by subtractive panning (GST-RhoAL63 counter-selection, GST-RhoBL63 selection); also called clone E3; source: E. coli XL1 blue, periplasmic fraction, purified (Ni-NTA); not shown: NP3 (N-terminal domain of the phage P3 protein), C-terminal, kept
With B6 the binding result [4] was “binds”, the “fold higher affinity than for GST-RhoAL63” value [11] was 10 fold and the Kd [6] was 22.9 nM. It also gave a Kd [9] of 3.63 nM.

B7: scFvE3-NP3-CBD (scFvE3 in fusion with the Chitin Binding Domain, on chitin beads) (scFv, V domains shown)
VH: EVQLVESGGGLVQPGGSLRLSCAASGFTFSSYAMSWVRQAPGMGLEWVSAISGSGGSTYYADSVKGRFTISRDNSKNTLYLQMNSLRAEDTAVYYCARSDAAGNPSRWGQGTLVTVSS
VL: SSELTQDPAVSVALGQTVRITCQGDSLRSYYTSWYQQKPGQAPVRVIYGKNNRPSGVPDRFSGSSSGNTASLTITGAQAEDEADYYCNSRDSSGNHAYVFGGGTKLTVL
notes: as the scFv of m3; Order scFv, NP3, CBD from the plasmid pHEN-scFv-NCBD; not shown: NP3 (N-terminal domain of the phage P3 protein), C-terminal, kept
B7: binds [10].
